Numbering of substitutions follows the chain as printed. Names and notes keep the numbering of the source.
Experiments:
[1] = molecular target: T1, Growth and differentiation factor-8 (GDF-8), mature human (human, UniProt O14793 267-375, conjugated to biotin in the ActRIIB ELISA and in the Fc gamma receptor SPR (site not stated)); test: SPR
T1 construct: also called myostatin; human GDF-8

[2] = molecular target: T1, Growth and differentiation factor-8 …; test: cell-based or functional assay
[3] = molecular target: T1, Growth and differentiation factor-8 …; test: cell-based or functional assay; remark: listed apart in the source
[4] = molecular target: T1, Growth and differentiation factor-8 …; test: competition ELISA (GDF-8 / ActRIIB-Fc)
[5] = molecular target: T2, CD32b (Fc gamma receptor) (UniProt P31994 43-217); test: SPR (Biacore T200), OGD1.0.0 captured on biotin-GDF-8 on an SA chip, receptor flowed
T2 sequence (looked up): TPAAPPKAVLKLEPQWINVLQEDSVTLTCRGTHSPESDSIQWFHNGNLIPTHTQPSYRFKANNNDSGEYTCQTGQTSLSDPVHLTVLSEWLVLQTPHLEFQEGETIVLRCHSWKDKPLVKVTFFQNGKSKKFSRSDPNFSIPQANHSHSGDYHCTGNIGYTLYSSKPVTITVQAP

[6] = molecular target: T1, Growth and differentiation factor-8 …; test: SPR (BIACORE 3000), antibody captured on protein A, GDF-8 flowed, 1:1 Langmuir fit
[7] = molecular target: T1, Growth and differentiation factor-8 …; test: competition ELISA: antibody inhibits biotin-GDF-8 (10 ng/ml) binding to coated ActRIIB-Fc
[8] = molecular target: T3, CD16a-158V (Fc gamma receptor) (UniProt P08637 17-208); test: SPR (Biacore T200), OGD1.0.0 captured on biotin-GDF-8 on an SA chip, receptor flowed, single-cycle kinetics
T3 construct: The 158V allotype is as printed

[9] = molecular target: T4, CD32a-131H (Fc gamma receptor) (UniProt P12318 34-217); test: as above
T4 construct: The 131H allotype is as printed
T4 sequence (looked up): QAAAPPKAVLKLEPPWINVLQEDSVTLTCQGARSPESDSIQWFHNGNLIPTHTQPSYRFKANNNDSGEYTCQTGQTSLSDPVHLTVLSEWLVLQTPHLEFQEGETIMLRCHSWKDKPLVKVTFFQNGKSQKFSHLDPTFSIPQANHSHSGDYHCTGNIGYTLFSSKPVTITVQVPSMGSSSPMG

CD64 (Fc gamma receptor) = CD64 (Fc gamma receptor) (UniProt P12314 16-288, limits assumed); test: as above
[10] = molecular target: T1, Growth and differentiation factor-8 …; test: SPR (BIACORE 3000), antibody captured with anti-mouse IgG, GDF-8 flowed, 1:1 Langmuir fit
[11] = molecular target: T1, Growth and differentiation factor-8 …; test: SPR (BIACORE 3000), captured antibody, GDF-8 flowed, 1:1 Langmuir fit
[12] = molecular target: T1, Growth and differentiation factor-8 …; test: competition ELISA

B1: OGD1.0.0 humanized anti-GDF-8 antibody (VH0 and VL0) (antibody, human IgG1, kappa)
heavy: EVQLLESGGGLVQPGGSLRLSCAASGFTFSSYAMSWVRQAPGKGLEWVSTISSGGSYTSYPDSVKGRFTISRDNSKNTLYLQMNSLRAEDTAVYYCAKQDYAMNYWGQGTLVTVSSASTKGPSVFPLAPSSKSTSGGTAALGCLVKDYFPEPVTVSWNSGALTSGVHTFPAVLQSSGLYSLSSVVTVPSSSLGTQTYICNVNHKPSNTKVDKKVEPKSCDKTHTCPPCPAPEAAGAPSVFLFPPKPKDTLMISRTPEVTCVVVDVSHEDPEVKFNWYVDGVEVHNAKTKPREEQYNSTYRVVSVLTVLHQDWLNGKEYKCKVSNKALPAPIEKTISKAKGQPREPQVYTLPPSREEMTKNQVSLTCLVKGFYPSDIAVEWESNGQPENNYKTTPPVLDSDGSFFLYSKLTVDKSRWQQGNVFSCSVMHEALHNHYTQKSLSLSPGK
light: DIQMTQSPSSLSASVGDRVTITCKASQDVSTAVAWYQQKPGKAPKLLIYSASYRYTGVPSRFSGSGSGTDFTLTISSLQPEDFATYYCQQHYSTPWTFGGGTKVEIKRTVAAPSVFIFPPSDEQLKSGTASVVCLLNNFYPREAKVQWKVDNALQSGNSQESVTEQDSKDSTYSLSSTLTLSKADYEKHKVYACEVTHQGLSSPVTKSFNRGEC
notes: also called OGD1.0.0 antibody
Kd [1]: 0.00259 nM | CAGA EC50 [2]: 27.3 nM | IC50 by reporter gene assay compared to OGD1.0.0 [3]: 1 fold of OGD1.0.0 | IC50 by ELISA compared to OGD1.0.0 [4]: 1 fold of OGD1.0.0 | Kd [5]: > 21000 nM | Kd [6]: 0.00259 nM | IC50 [7]: 0.14 nM | binding result [8]: no binding (tested: 0-21 µM) | binding result [9]: no binding (tested: 0-21 µM) | binding result (CD64 (Fc gamma receptor)): no binding (tested: 0-270 nM)

B2: OGD1.1.1 humanized anti-GDF-8 antibody (VH1 and VL1) (antibody, human IgG1, kappa)
heavy: B1 heavy with L111M
light: B1 light with G100Q
CAGA EC50 [2]: 26 nM | Kd [6]: 0.00725 nM | IC50 [7]: 0.14 nM

B3: Murine anti-GDF-8 monoclonal antibody (parental murine antibody) (antibody, V domains shown)
VH: EVQLVESGGGLVKPGGSLKLSCAASGFTFSSYAMSWVRQTPEKRLEWVATISSGGSYTSYPDSVKGRFTISRDNAKNTLYLQMSSLRSEDTAMYYCARQDYAMNYWGQGTSVTVSS
VL: DIEMTQSHKFMSTSVGDRVSITCKASQDVSTAVAWYQQKPGQSPKLLLYSASYRYTGVPDRFTGSGSGTDFTFTISSVQAEDLAVYYCQQHYSTPWTFGGGTKLEIK
notes: also called mouse anti-GDF-8 antibody
CAGA EC50 [2]: 33.5 nM | Kd [10]: 0.0218 nM | IC50 [7]: 0.165 nM

B4: Chimeric mouse-human anti-GDF-8 antibody (murine variable domains and human constant domains) (antibody, human IgG1, V domains shown)
VH: B3 VH
VL: B3 VL
notes: also called Chimeric antibody
CAGA EC50 [2]: 24.2 nM | Kd [11]: 0.00299 nM | IC50 [7]: 0.165 nM

B5: OGD1.0.2 humanized anti-GDF-8 antibody (VH0 and VL2) (antibody, V domains shown)
VH: EVQLLESGGGLVQPGGSLRLSCAASGFTFSSYAMSWVRQAPGKGLEWVSTISSGGSYTSYPDSVKGRFTISRDNSKNTLYLQMNSLRAEDTAVYYCAKQDYAMNYWGQGTLVTVSS
VL: DIQMTQSPSSLSASVGDRVTITCKASQDVSTAVAWYQQKPGKAPKLLIYAASSLQSGVPSRFSGSGSGTDFTLTISSLQPEDFATYYCQQHYSTPWTFGGGTKVEIK
notes: Intact antibody produced in COS-1 cells
Kd [1]: 0.00146 nM | IC50 by reporter gene assay compared to OGD1.0.0 [3]: 1.03 fold of OGD1.0.0 | IC50 by ELISA compared to OGD1.0.0 [4]: 0.91 fold of OGD1.0.0

B6: OGD1.4.0 humanized anti-GDF-8 antibody (VH4 and VL0) (antibody, V domains shown)
VH: B5 VH with M103F, N104D
VL: B5 VL with A50S, S53Y, L54R, Q55Y, S56T
notes: VH4 carries M99F and N101D in CDR3
Kd [1]: 0.284 nM | IC50 by reporter gene assay compared to OGD1.0.0 [3]: 7.5 fold of OGD1.0.0 | IC50 by ELISA compared to OGD1.0.0 [4]: 1.71 fold of OGD1.0.0

B7: OGD1.0.4 humanized anti-GDF-8 antibody (VH0 and VL4) (antibody, V domains shown)
VH: B5 VH
VL: not shown
notes: VL4 is VL3 with S50A
Kd [1]: 0.00246 nM | IC50 by reporter gene assay compared to OGD1.0.0 [3]: 1.54 fold of OGD1.0.0 | IC50 by ELISA compared to OGD1.0.0 [4]: 0.61 fold of OGD1.0.0

B8: OGD1.0.5 humanized anti-GDF-8 antibody (VH0 and VL5) (antibody, V domains shown)
VH: B5 VH
VL: B5 VL with K24R, D28S, V29I, V33L, A34N, A50S, H91S, W96L
notes: VL5 is VL3 with W96L
Kd [1]: 0.057 nM | IC50 by ELISA compared to OGD1.0.0 [4]: 5.94 fold of OGD1.0.0

B9: OGD1.3.0 humanized anti-GDF-8 antibody (VH3 and VL0) (antibody, V domains shown)
VH: B5 VH with T50A, G54S, S56G, S59Y, P61A
VL: B5 VL with A50S, S53Y, L54R, Q55Y, S56T
binding result [12]: binds

B10: OGD1.0.3 humanized anti-GDF-8 antibody (VH0 and VL3) (antibody, V domains shown)
VH: B5 VH
VL: B5 VL with K24R, D28S, V29I, V33L, A34N, A50S, H91S
Kd [1]: 0.00317 nM | IC50 by reporter gene assay compared to OGD1.0.0 [3]: 0.85 fold of OGD1.0.0 | IC50 by ELISA compared to OGD1.0.0 [4]: 0.96 fold of OGD1.0.0
